Patent US20150274841A1 (DYAX, published 2015)
Numbering of substitutions follows the chain as printed.

B1: X133-G05 (Fab, V domains shown)
VH: EVQLLESGGGLVQPGGSLRLSCAASGFTFSHYIMMWVRQAPGKGLEWVSGIYSSGGITVYADSVKGRFTISRDNSKNTLYLQMNSLRAEDTAVYYCAYRRTGSPRRDAFDIWGQGTMVTVSS
VL: DIQMTQSPSTLSASVGDRVTITCRASQSISSWLAWYQQKPGKAPNLLIYKASTLESGVPSRFSGSGSGTEFTLTISSLQPDDFATYYCQQYNTYWTFGQGTKVEIK
B2: M0199-All (Fab, V domains shown)
VH: B1 VH with T101R, S103I
VL: B1 VL
B3: M0202-H03 (Fab, V domains shown)
VH: B1 VH with S103V, R106W, A108D
VL: B1 VL
B4: M0201-A07 (Fab, V domains shown)
VH: B1 VH with S103V, A108E
VL: B1 VL
B5: M0199-B01 (Fab, V domains shown)
VH: B1 VH with S103I, I111N
VL: B1 VL
B6: M0202-E06 (Fab, V domains shown)
VH: B1 VH with T101R, S103V, A108D
VL: B1 VL
B7: M0202-C02 (Fab, V domains shown)
VH: B1 VH with T101P, S103V
VL: B1 VL
B8: M0202-B04 (Fab, V domains shown)
VH: B1 VH with T101S, S103V
VL: B1 VL
B9: X133-F10 (Fab, V domains shown)
VH: B1 VH with S103L
VL: B1 VL
B10: M0202-A08 (Fab, V domains shown)
VH: B1 VH with S103I, R106W
VL: B1 VL
B11: M0202-009 (Fab, V domains shown)
VH: B1 VH with T101I, S103V, A108D
VL: B1 VL
B12: M0202-E03 (Fab, V domains shown)
VH: B1 VH with S103I, D110E
VL: B1 VL
B13: M0201-H06 (Fab, V domains shown)
VH: B1 VH with S103V
VL: B1 VL
B14: M0200-B01 (Fab, V domains shown)
VH: B1 VH with S103I, I111S
VL: B1 VL
B15: M0200-D03 (Fab, V domains shown)
VH: B1 VH with T101I, S103V, A108S, I111M
VL: B1 VL
B16: X135-A01 (Fab, V domains shown)
VH: B1 VH with S103A
VL: B1 VL
B17: M0202-D09 (Fab, V domains shown)
VH: B1 VH with T101I, S103V, A108S
VL: B1 VL
B18: M0201-F11 (Fab, V domains shown)
VH: B1 VH with T101S, S103I
VL: B1 VL
B19: M0201-A06 (Fab, V domains shown)
VH: B1 VH with S103I, A108V
VL: B1 VL
notes: HC CDR3 variant of M0162-A04, tested as Fab
B20: M0202-H05 (Fab, V domains shown)
VH: B1 VH with S103V, A108V
VL: B1 VL
notes: as for B19
B21: M0202-G03 (Fab, V domains shown)
VH: B1 VH with S103V, A108S, D110E
VL: B1 VL
notes: as for B19
B22: M0201-H08 (Fab, V domains shown)
VH: B1 VH with S103V, F109L, I111N
VL: B1 VL
notes: as for B19
B23: X133-D06 (Fab, V domains shown)
VH: B1 VH with T101I, S103I, A108E
VL: B1 VL
notes: as for B19
B24: M0202-F06 (Fab, V domains shown)
VH: B1 VH with S103V, R106W
VL: B1 VL
notes: as for B19
B25: X135-A03 (Fab, V domains shown)
VH: B1 VH with S103I, A108E
VL: B1 VL
notes: as for B19
B26: X133-B02 (Fab, V domains shown)
VH: B1 VH with T101I, S103I
VL: B1 VL
notes: as for B19
B27: M0200-H07 (Fab, V domains shown)
VH: B1 VH with S103V, D107N, I111N
VL: B1 VL
notes: as for B19
B28: M0199-A08 (Fab, V domains shown)
VH: B1 VH with T101I, S103V, A108E
VL: B1 VL
notes: also called M199-A08
B29: M0202-A01 (Fab, V domains shown)
VH: B1 VH with T101I, S103V
VL: B1 VL
notes: as for B19
B30: M0200-E11 (Fab, V domains shown)
VH: B1 VH with S103V, I111N
VL: B1 VL
notes: as for B19
B31: M0202-Al2 (Fab, V domains shown)
VH: B1 VH with R99Q, S103V, A108S, D110N
VL: B1 VL
notes: HC CDR3 variant of M0162-A04, tested as Fab; also called M0202-A12 (probable reading)
B32: M0200-A10 (Fab, V domains shown)
VH: B1 VH with S103V, A108S
VL: B1 VL
notes: as for B19

Key:
[1] = target: T1, human plasma kallikrein (PKal) (human, UniProt P03952 20-638); assay: Ki,app; Fab inhibition of PKal cleavage of a substrate peptide, Morrison fit
T1 construct: Active PKal is cleaved at the marked R/I site into two disulfide-linked chains; also called human Pkal; active PKal
T1 sequence (P03952 20-638 limits assumed): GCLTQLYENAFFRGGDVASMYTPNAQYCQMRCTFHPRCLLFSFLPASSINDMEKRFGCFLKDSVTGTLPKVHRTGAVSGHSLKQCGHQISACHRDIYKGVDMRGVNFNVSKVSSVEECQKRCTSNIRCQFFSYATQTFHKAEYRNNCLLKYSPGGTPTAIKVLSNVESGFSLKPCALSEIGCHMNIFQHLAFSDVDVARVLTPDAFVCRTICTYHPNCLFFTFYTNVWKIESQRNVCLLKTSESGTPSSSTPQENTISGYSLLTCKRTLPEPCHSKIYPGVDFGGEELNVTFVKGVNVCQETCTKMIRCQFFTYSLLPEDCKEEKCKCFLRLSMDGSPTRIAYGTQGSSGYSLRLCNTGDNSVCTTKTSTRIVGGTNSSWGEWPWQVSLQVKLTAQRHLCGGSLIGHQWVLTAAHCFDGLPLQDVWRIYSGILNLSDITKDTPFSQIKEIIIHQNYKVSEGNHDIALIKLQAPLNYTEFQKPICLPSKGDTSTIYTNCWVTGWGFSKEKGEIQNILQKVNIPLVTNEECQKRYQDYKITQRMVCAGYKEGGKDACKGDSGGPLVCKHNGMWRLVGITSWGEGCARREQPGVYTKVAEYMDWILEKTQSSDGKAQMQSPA
Description: (§1) Briefly, PKal and a Fab at various concentrations are incubated together for 1 hour at 30° C. A substrate peptide (cleavable by PKal) is then added to this PKal-Fab mixture. The rate of substrate peptide cleavage/proteolysis is then measured, and plotted against the concentrations of the Fab. This plot is then fit to the Morrison equation, which calculates the K_{i,app} value. The results thus obtained are shown in FIGS. 5A-5D and Table 3 below: […]

[2] = target: T1, human plasma kallikrein (PKal); assay: enzyme inhibition assay: rate (F/s) of substrate peptide cleavage by PKal against [Fab] (nM), fitted to the Morrison equation; apparent Ki (Ki,app); Table 3 prints it rounded, 1405.6 nM
[3] = target: T1, human plasma kallikrein (PKal); assay: enzyme inhibition assay: rate (F/s) of substrate peptide cleavage by PKal against [Fab] (nM), fitted to the Morrison equation; apparent Ki (Ki,app); Table 3 prints it rounded, 14.7 nM
[4] = target: T1, human plasma kallikrein (PKal); assay: enzyme inhibition assay: rate (F/s) of substrate peptide cleavage by PKal against [Fab] (nM), fitted to the Morrison equation; apparent Ki (Ki,app); Table 3 prints 0.33 nM
Description: as §1

[5] = target: T1, human plasma kallikrein (PKal); assay: enzyme inhibition assay: rate (F/s) of substrate peptide cleavage by PKal against [Fab] (nM), fitted to the Morrison equation; apparent Ki (Ki,app); Table 3 prints 1.1 nM
Description: as §1

[6] = target: T1, human plasma kallikrein (PKal); assay: enzyme inhibition assay: rate (F/s) of substrate peptide cleavage by PKal against [Fab] (nM), fitted to the Morrison equation; apparent Ki (Ki,app); Table 3 prints it rounded, 2.2 nM
Description: as §1

[7] = target: T1, human plasma kallikrein (PKal); assay: enzyme inhibition assay: rate (F/s) of substrate peptide cleavage by PKal against [2930] (pM), fitted to the Morrison equation; apparent Ki (Ki,app); no unit stands beside the value, pM is the unit of the concentration axis; Table 3 prints 0.06 nM
Description: as §1

Row | Binder | Ki [1] | also measured
1 | B1 | 1410 nM | Ki [2]: 1410 nM
2 | B2 | 2 nM | –
3 | B3 | 0.1 nM | –
4 | B4 | 0.1 nM | –
5 | B5 | 1.6 nM | –
6 | B6 | 0.06 nM | –
7 | B7 | 0.6 nM | –
8 | B8 | 0.2 nM | –
9 | B9 | 14.7 nM | Ki [3]: 14.7 nM
10 | B10 | 2.8 nM | –
11 | B11 | 0.06 nM | –
12 | B12 | 2 nM | –
13 | B13 | 0.6 nM | –
14 | B14 | 3.6 nM | –
15 | B15 | 0.1 nM | –
16 | B16 | 248 nM | –

Row | Binder | Ki [1] | also measured
17 | B17 | 0.2 nM | –
18 | B18 | 3 nM | –
19 | B19 | 3.8 nM | –
20 | B20 | 0.26 nM | –
21 | B21 | 0.4 nM | –
22 | B22 | 0.8 nM | –
23 | B23 | 0.33 nM | Ki [4]: 0.301 nM
24 | B24 | 0.33 nM | –
25 | B25 | 1.1 nM | Ki [5]: 1.25 nM
26 | B26 | 2.2 nM | Ki [6]: 2.22 nM
27 | B27 | 0.4 nM | –
28 | B28 | 0.06 nM | Ki [7]: 0.099 nM
29 | B29 | 0.3 nM | –
30 | B30 | 0.4 nM | –
31 | B31 | 0.1 nM | –
32 | B32 | 0.25 nM | –
